Data set [1] concerns MPJSBWMV:GFP (movement protein, GFP fusion, in leaf extract) (Japanese soil-borne wheat mosaic virus). Kind of data set: MST. To be noted: MST in leaf extract: extraction in 2x MST buffer (100 mM Tris-HCl pH 7.5, 300 mM NaCl, 10 mM MgCl2, 0.1% Tween-20, 0.1 mg/mL BSA, 10 mM DTT, protease …).
Data set [2] deals with Japanese soil-borne wheat mosaic virus movement protein (MP^JSBWMV), as fusions MP^JSBWMV:RFP and MP^JSBWMV:GFP (Japanese soil-borne wheat mosaic virus). Kind of data set: FRET or BRET; FRET-FLIM (two-photon, time-correlated single-photon counting) in agro-inoculated N. benthamiana epidermal cells, at plasmodesmata; donor MP:GFP, acceptor RFP fusion; FRET efficiency above 5% considered as interaction.

“tRNA2JSBWMV (tRNA-like structure of RNA2)” had a Kd in data set [1] of 0.0283 µM.
In the case of “tRNA1JSBWMV (tRNA-like structure of RNA1)”, the Kd in data set [1] is 0.0162 µM.
Regarding RNA1JSBWMV, in data set [1], the Kd came to 0.0154 µM.
Still for that read-out and setting: the same measure for RNA2JSBWMV: 0.0045 µM.
In data set [2], “Japanese soil-borne wheat mosaic virus movement protein (MP^JSBWMV), as fusions MP^JSBWMV:RFP and MP^JSBWMV:GFP (natural protein)” showed a % FRET of 19.1% and a fluorescence lifetime of the donor MP:GFP of 2 ns.

Source of the values: publication PMC12060307.
